As usually defined, the Kd is the equilibrium constant for the complex coming apart. Read a high Kd as weaker binding. In general, koff refers to a measure of how fast the partners let go of each other. High values mean a short-lived complex, low ones a long-lived complex. As usually defined, the kon is the rate constant with which the complex forms. A higher kon goes with faster complex formation.

The text below walks through data of US20240293588A1, “THERAPEUTIC CONJUGATES” (Starpharma Pty Ltd, priority 2020, published 2024).

In experiment [1] the test system is HER2-positive MDA-MB-453 cells. Nature of the experiment: Binding of 2D3-dendrimer conjugates to MDA-MB-453 cells (Cy5 MFI). It is filed as cell-based, human. Particulars: for MFI (mean fluorescence intensity, Cy5): MDA-MB-453 cells incubated with dendrimers, triplicate wells, mean with standard deviation; for binding to MDA-MB-453 cells: flow cytometry, result in words.

For experiment [2], the system named is MDA-MB-231/HER2 (HER2 knock in) cells. Description: In vitro association study (flow cytometry), MDA-MB-231/HER2. It is filed as cell-based, human. The following applies: MDA-MB-231/HER2, 3.33 nM, over 24 h, mean±SD. For orientation: In flow cytometry, cells or beads pass a laser one at a time.
Experiment [3] addresses T1, ErbB2-ECD (Homo sapiens, UniProt P04626). Description: SPR, ErbB2-ECD amine-coupled on chip, analyte injected, 25 °C, 1:1 Langmuir fit.
Experiment [4] has as its target T1, ErbB2-ECD. Description: SPR, ErbB2-ECD amine-coupled on chip, analyte injected, 25 °C, 1:1 Langmuir fit; affibody dimeric. Background: In SPR one partner is held on a chip, and binding of the other changes the refractive index at the surface.
The target in experiment [5] is T2, HER2 (human epidermal growth factor receptor 2) on cells (human, UniProt P04626 23-1255).
T2 construct: whole, on cells; also called ERBB2; HER2 receptor
Nature of the experiment: flow cytometry (Cy5), BT-474 cells, 1 h, conjugate at 25 mM (so in the source).

Experiment [6] has as its target T2, HER2 (human epidermal growth factor …). Description: flow cytometry (Cy5), BT-474 cells, 1 h, conjugate at 6 mM (so in the source).
Experiment [7] shares this target. Description: flow cytometry (Cy5), BT-474 cells, 1 h, conjugate at 3 mM (so in the source).
For experiment [8] the target is unchanged. Description: flow cytometry (Cy5), BT-474 cells, 1 h, conjugate at 12 mM (so in the source).
The target is the same in experiment [9]. Nature of the experiment: flow cytometry (Cy5), MDA-MB-231 parental cells (HER2 lo, control), 0.5 h.
For experiment [10] the target is unchanged. Nature of the experiment: flow cytometry (Cy5), MDA-MB-231/HER2 cells, 0.5 h.

For “(MeTzPh)PEG4CO-NHPEG24CO—[N(PN)2][Lys]2[Lys]4[Lys]8[Lys]16[Lys]32[((α-NHCy5)1(α-NHAc)31)(ε-NH-COPEG1100)32], G5 [Compound 54]”, in [1], the “MFI (mean fluorescence intensity, Cy5)” value amounted to 4.349 ± 0.08 and the “binding to MDA-MB-453 cells” value is “did not bind”. Further, in experiment [2], the “percent of cellular association” value is on record as “significantly lower association”.
For the molecule “(MeTzPh)PEG4CO-NHPEG24CO—[N(PN)2][Lys]2[Lys]4[Lys]8[((α-NHCy5)1(α-NHAc)7)(ε-NH-COPEG1100)8], G3 [Compound 52]”, in [1], the “MFI (mean fluorescence intensity, Cy5)” value is listed as 3.097 ± 0.01 and the “binding to MDA-MB-453 cells” value is recorded as “did not bind”. In addition, the “percent of cellular association” value in [2] is listed as “significantly lower association”.
In the experiment with ErbB2-ECD [3], “Affibody-BCN/N3-PEG24CO-[N(PN)2][Lys]2[Lys]4[Lys]8[(α-NHGlu-vc-PAB-MMAE)8(ε-NH-COPEG1100)8], G3, Compound 77 (designed binder)” yielded a Kd of 50 nM, a koff of 0.0013 s⁻¹ and a kon of 25000 M⁻¹ s⁻¹.
As for “Affibody protein (HER2, Affibody AB) (designed binder)”, in the experiment with ErbB2-ECD [4], the Kd came out at 0.266 nM, the koff came to 0.00051 s⁻¹ and the kon turned out to be 1.9e+06 M⁻¹ s⁻¹.
Regarding “Affibody-BCN/N3-PEG24CO-[N(PN)2][Lys]2[Lys]4[Lys]8[(α-NHGlu-vc-PAB-MMAE)8(ε-NH-COPEG2000)8], G3, Compound 78 (designed binder)”, in the experiment with ErbB2-ECD [3], the Kd stood at 36 nM, the koff came to 0.00114 s⁻¹ and the kon is 32000 M⁻¹ s⁻¹.
In the case of “(MeTzPh)PEG4CO-NHPEG24CO—[N(PN)2][Lys]2[Lys]4[Lys]8[Lys]16[((α-NHCy5)1(α-NHAc)15)(ε-NH-COPEG1100)16], G4 [Compound 53]”, in [1], the “MFI (mean fluorescence intensity, Cy5)” value was found to be 6.827 ± 0.07 and the “binding to MDA-MB-453 cells” value was “did not bind”. Also, the “percent of cellular association” value in [2] was “significantly lower association”.

B1: [[(ε-NHCO-PEG1100)8(α-NHDOTA)4.75(α-NHCy5)0.5(α-NH2)2.75][Lys]8[Lys]4[Lys]2[Lys]-CONH-CH2-CH2-S-]2MAL-PEG3-NHCO-PEG24-CONH-PEG4-(PhTzMe)/TCO-NHCO-PEG24-(MAL)Me/ … (VHH)
VHH: EVQLVESGGSLVQPGGSLRLSCAASGFTFDDYAMSWVRQVPGKGLEWVSSINWSGTHTDYADSVKGRFTISRNNANNTLYLQMNSLKSEDTAVYYCAKNWRDAGTTWFEKSGSAGQGTQVTVSS
modifications: the additional cysteine (in …) coupled to the methylmaleimide of linker SRS-12 (intermediate SRS-14), whose TCO is joined to the tetrazine of dendrimer SRS-4-Mal (maleimide core, Cy5, DOTA, PEG1100)
As for B1, the MFI in [5] came to 2150; in experiment [6], 1460; in [7], 915; in experiment [8] it was 2270.

B2: [(ε-NHCO-PEG1100)16(α-DOTA)7(α-NHCy5)1(α-NH2)8][Lys]16[Lys]8[Lys]4[Lys]2[Lys]-(PN)NCO-PEG24-CONH-PEG4-(PhTzMe)/TCO-NHCO-PEG24-(MAL)Me/Cys-Nanobody SRS-17 (VHH)
VHH: EVQLVESGGSLVQPGGSLRLSCAASGFTFDDYAMSWVRQVPGKGLEWVSSINWSGTHTDYADSVKGRFTISRNNANNTLYLQMNSLKSEDTAVYYCAKNWRDAGTTWFEKSGSAGQGTQVTVSS
modifications: the additional cysteine (in …) coupled to the methylmaleimide of linker SRS-12 (intermediate SRS-14), whose TCO is joined to the tetrazine of dendrimer HH-2 (1 Cy5, 7 DOTA, 16 PEG1100)
B2: the MFI is 2550 in experiment [5], 1530 in experiment [6], 1020 in experiment [7] and 2270 in experiment [8].

B3: BHA[Lys]2[Lys]4[Lys]8[Lys]16[((α-NH-COPEG24NH-COPEG4(PhMeTz)/TCO-PEG3NH-COPEG24NH-Glu-DBCO/N3-Nanobody)1(α-Lys(α-NHCy5)(ε-NHDFO))1(α-NH2)14(ε-NH-COPEG1000)16], … (VHH)
VHH: EVQLVESGGSLVQPGGSLRLSCAASGFTFDDYAMSWVRQVPGKGLEWVSSINWSGTHTDYADSVKGRFTISRNNANNTLYLQMNSLKSEDTAVYYCAKNWRDAGTTWFEKSGSAGQGTQVTVSS
modifications: # (unnatural amino acid, p-azido-phenylalanine, after ...QVTVSS) clicked to the DBCO of linker Compound 51, whose TCO is joined to the tetrazine on the surface of the G4 lysine dendrimer Compound 28 (Cy5, DFO, 16 PEG1000)
notes: One nanobody on each dendrimer; also called single 2D3-dendrimer conjugate; BHA-G4-PEG1000 + NB
As for B3, the “percent of cellular association” value in experiment [9] turned out to be 20%; in [10], 157%.

B4: [(ε-NHCO-PEG1100)16(α-NHCy5)1(α-NHDOTA)8(α-NH2)7][Lys]16[Lys]8[Lys]4[Lys]2[Lys]-CONH-CH2-CH2-S-(Me)MAL-PEG24-CONH-Bn-Tz(Me)/TCO-NHCO-PEG24-(MAL)Me/Cys-Nanobody … (VHH)
VHH: EVQLVESGGSLVQPGGSLRLSCAASGFTFDDYAMSWVRQVPGKGLEWVSSINWSGTHTDYADSVKGRFTISRNNANNTLYLQMNSLKSEDTAVYYCAKNWRDAGTTWFEKSGSAGQGTQVTVSS
modifications: the additional cysteine (in …) coupled to the methylmaleimide of linker SRS-12 (intermediate SRS-14), whose TCO is joined to the tetrazine of dendron RP-5 (1 Cy5, 8 DOTA, 16 PEG1100)
On to B4, for which the MFI worked out at 1450 in experiment [5], 732 in experiment [6], 716 in experiment [7] and 1370 in experiment [8].

B5: [[(ε-NHCO-PEG1100)8(α-NHDOTA)4.75(α-NHCy5)0.5(α-NH2)2.75][Lys]8[Lys]4[Lys]2[Lys]-CONH-CH2-CH2-S-]2MAL-PEG3-NHCO-PEG24-CONH-PEG4-(PhTzMe)/TCO-PEG3-NHCO-PEG24-Glu … (VHH)
VHH: EVQLVESGGSLVQPGGSLRLSCAASGFTFDDYAMSWVRQVPGKGLEWVSSINWSGTHTDYADSVKGRFTISRNNANNTLYLQMNSLKSEDTAVYYCAKNWRDAGTTWFEKSGSAGQGTQVTVSS
modifications: # (unnatural amino acid, p-azido-phenylalanine, after ...QVTVSS) clicked to the DBCO of SRS-20a (linker Compound 51 on dendrimer SRS-4-Mal: maleimide core, Cy5, DOTA, PEG1100)
Take B5: the MFI is 3400 in [5], 2170 in [6], 1500 in [7] and 3140 in experiment [8].

B6: BHA[Lys]2[Lys]4[Lys]8[Lys]16[Lys]32[((α-NH-COPEG24NH-COPEG4(PhMeTz)/TCO-PEG3NH-COPEG24NH-Glu-DBCO/N3-Nanobody)1(α-Lys(α-NHCy5)(ε-NHDFO))1(α-NH2)30(ε-NH-COPEG100 … (VHH)
VHH: EVQLVESGGSLVQPGGSLRLSCAASGFTFDDYAMSWVRQVPGKGLEWVSSINWSGTHTDYADSVKGRFTISRNNANNTLYLQMNSLKSEDTAVYYCAKNWRDAGTTWFEKSGSAGQGTQVTVSS
modifications: # (unnatural amino acid, p-azido-phenylalanine, after ...QVTVSS) clicked to the DBCO of linker Compound 51, whose TCO is joined to the tetrazine on the surface of the G5 lysine dendrimer Compound 29 (Cy5, DFO, 32 PEG1000)
notes: also called BHA-G5-PEG1000 + NB
B6: the “percent of cellular association” value was determined as 17.5% in experiment [9] and 165% in experiment [10].

B7: BHALys[Lys]2[Lys]4[Lys]8[Lys]16[((α-NH-COPEG24NH-COPEG4(PhTzMe)/TCO-PEG3-NHCO-PEG24-(MAL)Me/Cys-Nanobody)1(α-NHCy5)1(α-NHDOTA))10(α-NH2)4)(ε-NH-COPEG1000)16] … (VHH)
VHH: EVQLVESGGSLVQPGGSLRLSCAASGFTFDDYAMSWVRQVPGKGLEWVSSINWSGTHTDYADSVKGRFTISRNNANNTLYLQMNSLKSEDTAVYYCAKNWRDAGTTWFEKSGSAGQGTQVTVSS
modifications: the additional cysteine (in …) coupled to the methylmaleimide of SRS-21a (linker SRS-12 on G4 dendrimer SRS-1: 1 Cy5, 10 DOTA, 16 PEG1000)
With B7, the MFI came out at 4760 in [5], 4640 in [6], 3100 in experiment [7] and 5260 in [8].

B8: [(ε-NHCO-PEG1100)16(α-DOTA)7(α-NHCy5)1(α-NH2)8][Lys]16[Lys]8[Lys]4[Lys]2[Lys]-(PN)NCO-PEG24-CONH-PEG4-(PhTzMe)/TCO-PEG3-NHCO-PEG24-Glu-DBCO/N3-Nanobody SRS-22 (VHH)
VHH: EVQLVESGGSLVQPGGSLRLSCAASGFTFDDYAMSWVRQVPGKGLEWVSSINWSGTHTDYADSVKGRFTISRNNANNTLYLQMNSLKSEDTAVYYCAKNWRDAGTTWFEKSGSAGQGTQVTVSS
modifications: # (unnatural amino acid, p-azido-phenylalanine, after ...QVTVSS) clicked to the DBCO of SRS-22a (linker Compound 51 on dendrimer HH-2: 1 Cy5, 7 DOTA, 16 PEG1100)
On to B8, for which the MFI in [5] stood at 6490; in experiment [6], 4910; in experiment [7] it was 2640; in experiment [8], 6550.

B9: BHALys[Lys]2[Lys]4[((α-NH-COPEG24NH-COPEG4(PhMeTz)/TCO-PEG3NH-COPEG24NH-Glu-DBCO/N3-Nanobody)1(α-Lys(α-NHCy5)(ε-NHDFO))1(α-NH2)2)(ε-NH-COPEG1000)4], G2, … (VHH)
VHH: EVQLVESGGSLVQPGGSLRLSCAASGFTFDDYAMSWVRQVPGKGLEWVSSINWSGTHTDYADSVKGRFTISRNNANNTLYLQMNSLKSEDTAVYYCAKNWRDAGTTWFEKSGSAGQGTQVTVSS
modifications: # (unnatural amino acid, p-azido-phenylalanine, after ...QVTVSS) clicked to the DBCO of linker Compound 51, whose TCO is joined to the tetrazine on the surface of the G2 lysine dendrimer Compound 25 (Cy5, DFO, 4 PEG1000)
notes: also called BHA-G2-PEG1000 + NB
In the case of B9, the “percent of cellular association” value was 30.8% in experiment [9] and 190% in experiment [10].

B10: BHALys[Lys]2[Lys]4[Lys]8[((α-NH-COPEG24NH-COPEG4(PhMeTz)/TCO-PEG3NH-COPEG24NH-Glu-DBCO/N3-Nanobody)1(α-Lys(α-NHCy5)(ε-NHDFO))1(α-NH2)6)(ε-NH-COPEG1000)8], G3, … (VHH)
VHH: EVQLVESGGSLVQPGGSLRLSCAASGFTFDDYAMSWVRQVPGKGLEWVSSINWSGTHTDYADSVKGRFTISRNNANNTLYLQMNSLKSEDTAVYYCAKNWRDAGTTWFEKSGSAGQGTQVTVSS
modifications: # (unnatural amino acid, p-azido-phenylalanine, after ...QVTVSS) clicked to the DBCO of linker Compound 51, whose TCO is joined to the tetrazine on the surface of the G3 lysine dendrimer Compound 27 (Cy5, DFO, 8 PEG1000)
notes: also called BHA-G3-PEG1000 + NB
Take B10: the results for the “percent of cellular association” value in experiment [9] and in [10] were 25.1% and 218%, respectively.
